Numbering of substitutions follows the chain as printed.
B1: mAb 14.70.2 (antibody, human IgG4, V domains shown)
VH: EVQLLESGGGLVQPGGSLRLSCAASGFTFSSYAMSWVRQAPGKGLEWVSTISDYGGSYTYYADSVKGRFTISRDNSKNTLYLQMNSLRAEDTAVYYCAKPPYDDYYGGFAYWGQGTLVTVSS
VL: DIQLTQSPSSLSASVGDRVTITCRASKSVSSSGYSYMHWYQQKPGKAPKLLIYLASNLESGVPSRFSGSGSGTDFTLTISSVQPEDFATYYCQHNRELPCTFGQGTKLEIK
notes: also called h3F9 H1/L2; h3F9 IgG4
B2: mAb 14.70.4 (antibody, human IgG4, V domains shown)
VH: B1 VH with S49A, K99R
VL: B1 VL with L4M, V82L
notes: also called h3F9 H2/L1; h3F9 IgG4
B3: mouse anti-SIRPA antibody m3F9 (antibody, mouse IgG1, V domains shown)
VH: EVKLVESGGGLVKPGGSLKLSCAASGFTFSSYAMSWVRQTPEKRLEWVATISDYGGSYTYYPDSVKGRFTISRDNAKYTLYLQMSSLRSEDTALYYCARPPYDDYYGGFAYWGQGTLVTVSA
VL: DIVLTQSPASLAVSLGQRATISCRASKSVSSSGYSYMHWYQQKPGQPPKLLIYLASNLESGVPARFSGSGSGTDFTLNIHPVEEEDAATYYCQHNRELPCTFGGGTKLEIK
notes: hybridoma-derived murine IgG1; also called Parental m3F9 IgG1; 3F9 mIgG1
B4: anti-SIRPA antibody 9C2 (antibody, V domains shown)
VH: EFQLQQSGAELVKPGASVKISCKASGYSLTGYNMNWVKQSRGKSLEWIGNINPHYGSSTYNQNFKDKATLTVDKSSSAAYMQFNSLTSEDSAVYYCAREGYDGVFDYWGQGTTLTVSS
VL: QIVLSQSPAILSASPGEKVTMTCRASSSVSYMHWYQQKPGSSPKPWIYVTSNLASGVPTRFSGSGSGTSYSLTISRVEAEDAATYYCQQWSSNPRTFGGGTKLEIK
notes: described in PCT/US2017/65366; also called mAb 9C2

Tests used:
[1] = biological target: T1, histidine-tagged human SIRPA (Sino Biological) (human, UniProt P78324 31-370); assay: BLI (Octet RED96), antibody captured on anti-human IgG Fc sensor, His-tagged SIRPA in solution, 1:1 model
T1 construct: bought, soluble; also called histidine-tagged huSIRPA isoform 1; soluble SIRPA antigen; not shown: histidine tag
T1 sequence (P78324 31-370 limits assumed): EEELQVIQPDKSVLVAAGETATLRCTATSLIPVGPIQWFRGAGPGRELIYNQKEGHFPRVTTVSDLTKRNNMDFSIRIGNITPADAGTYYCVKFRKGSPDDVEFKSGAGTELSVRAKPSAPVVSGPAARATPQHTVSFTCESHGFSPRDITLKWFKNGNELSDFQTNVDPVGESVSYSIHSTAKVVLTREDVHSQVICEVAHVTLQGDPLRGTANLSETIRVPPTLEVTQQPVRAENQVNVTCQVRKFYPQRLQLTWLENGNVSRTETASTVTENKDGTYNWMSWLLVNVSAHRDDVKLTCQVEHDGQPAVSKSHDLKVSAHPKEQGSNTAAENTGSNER
Experimental: (§1) Affinity measurements for the anti-SIRPA antibodies were performed as follows. Bio-layer interferometry (BLI) data were collected on a Pall ForteBio Octet RED96 instrument. Data analysis was performed using ForteBio Data Analysis Software, version 9.0. Standard kinetic buffer (PBS, 0.100 BSA, 0.02% Tween-20, pH 7.2) was used for the assay and for preparing reagents. […] Varying concentrations (0-200 nM) of histidine-tagged human SIRPA (Sino Biological, Beijing, China) were then bound to the captured anti-SIRPA surface (300 s association time, 600 s dissociation time). The resulting BLI signal was obtained as the difference in response from the reference (2.5 μg/mL IgG+0 nM SIRPA) sensor. […] Multi-concentration kinetic analysis was performed using a 1:1 interaction model to extract association and dissociation rate constants (ka and kd, respectively) for each antibody. Binding affinity constants (KD) were calculated from the ratio kd/ka.
(§2) Best-fit traces from the resulting sensorgrams were analyzed to calculate association rate, dissociation rate, and affinity values.

[2] = biological target: T2, human SIRPA v1 on BWZ cells (BWZ-huSIRPA) (human, UniProt P78324 31-504); assay: flow cytometry titration on BWZ cells overexpressing huSIRPA, 4 C
T2 construct: also called BWZ cells overexpressing human SIRPA; BWZ-huSIRPA v1 cells
T2 sequence (P78324 31-504): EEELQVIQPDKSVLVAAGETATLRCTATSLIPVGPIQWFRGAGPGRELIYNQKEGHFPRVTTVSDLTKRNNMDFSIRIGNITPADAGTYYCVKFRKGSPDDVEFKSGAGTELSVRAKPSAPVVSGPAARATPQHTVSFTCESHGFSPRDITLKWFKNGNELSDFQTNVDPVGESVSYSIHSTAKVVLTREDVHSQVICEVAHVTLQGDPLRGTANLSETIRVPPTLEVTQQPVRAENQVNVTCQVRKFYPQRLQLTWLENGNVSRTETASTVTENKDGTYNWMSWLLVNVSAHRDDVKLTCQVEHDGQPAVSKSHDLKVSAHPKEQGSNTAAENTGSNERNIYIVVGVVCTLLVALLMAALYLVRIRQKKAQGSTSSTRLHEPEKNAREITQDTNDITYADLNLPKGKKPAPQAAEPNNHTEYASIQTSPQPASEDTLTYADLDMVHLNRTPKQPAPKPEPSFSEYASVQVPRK
Experimental: Receptor bound antibodies were detected by staining cells with anti-mouse IgG Fc APC or anti-human IgG PE secondary antibody. Serial dilutions of the monoclonal antibodies were added to 10⁵ BWZ cells overexpressing huSIRPA (BWZ-huSIRPA) and allowed to achieve binding equilibrium at 4° C. After addition of fluorescently labeled secondary antibody and brief washing steps, mean fluorescent intensity (MFI) values as a function of titrated antibody concentration was recorded via FACS analysis. Curves were fit using nonlinear regression analysis with Graphpad Prism 6 software.

[3] = biological target: T2, human SIRPA v1 on BWZ cells …; assay: flow cytometry competition on BWZ-huSIRPA v1 cells, competitor: fluorophore-labelled reference m3F9
Text: IC50 values provide another comparison of relative affinity.

[4] = biological target: T1, histidine-tagged human SIRPA (Sino …); assay: BLI (Octet RED96), antibody captured on anti-mouse IgG Fc sensor, His-tagged SIRPA in solution, 1:1 model
Experimental: as §1, §2

[5] = biological target: T3, cynoSIRPA XPO15313153.1 (cynomolgus, UniProt A0A2K5VYQ9); assay: ELISA, plate coated with tagged SIRPA at 1 ug/mL
T3 construct: not tied one by one in the text; also called cynomolgus SIRPA; not shown: Fc or His tag
T3 sequence: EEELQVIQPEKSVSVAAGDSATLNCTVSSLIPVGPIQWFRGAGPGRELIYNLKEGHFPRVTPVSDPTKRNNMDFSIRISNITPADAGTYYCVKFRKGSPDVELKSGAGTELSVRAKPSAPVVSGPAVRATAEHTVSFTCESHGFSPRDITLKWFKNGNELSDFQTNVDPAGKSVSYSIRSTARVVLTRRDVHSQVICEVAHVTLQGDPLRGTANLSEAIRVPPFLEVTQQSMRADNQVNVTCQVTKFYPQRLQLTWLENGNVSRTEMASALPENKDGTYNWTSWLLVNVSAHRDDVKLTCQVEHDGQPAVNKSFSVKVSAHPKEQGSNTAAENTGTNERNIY
Experimental: (§3) In an ELISA assay, 96-well Immulon HBX plates were coated with His- or Fc-tagged SIRPA of a given species, as indicated, at 1 μg/mL in PBS overnight at 4C. Plates were blocked in 5% (w/v) bovine serum albumin in PBS for 1 hour, after which they were washed 3 times with PBS/0.05% Tween 20 (PBS/T). Anti-SIRPA antibodies were added to the plate in a dilution series and were incubated at room temperature for 2 hours, after which the unbound antibody was removed by washing with PBS/T. Horseradish peroxidase-conjugated anti-mouse IgG or anti-human kappa light chain (Jackson Immunoresearch) was then added to the wells and incubated for 30 minutes. Unbound antibody was removed by washing with PBS/T, after which bound antibody was detected using tetramethylbenzidine (TMB). The reaction was stopped with 2N H₂SO₄, after which the plates were read at A450.

[6] = biological target: T4, rat SIRPA (rat, UniProt P97710 32-373, limits assumed); assay: ELISA, plate coated with tagged SIRPA at 1 ug/mL
T4 sequence (looked up): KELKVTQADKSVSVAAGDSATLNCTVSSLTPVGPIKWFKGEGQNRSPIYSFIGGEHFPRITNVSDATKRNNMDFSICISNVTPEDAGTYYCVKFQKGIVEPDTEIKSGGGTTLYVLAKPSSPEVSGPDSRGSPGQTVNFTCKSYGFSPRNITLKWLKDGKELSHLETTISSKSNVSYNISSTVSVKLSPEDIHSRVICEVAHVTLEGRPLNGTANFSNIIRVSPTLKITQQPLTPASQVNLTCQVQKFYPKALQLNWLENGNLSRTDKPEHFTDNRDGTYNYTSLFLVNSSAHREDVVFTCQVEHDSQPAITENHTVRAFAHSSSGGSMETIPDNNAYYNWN
Experimental: as §3

[7] = biological target: T5, huSIRPA v.2 NP542970.1 (human, UniProt P78324 31-373, limits assumed); assay: ELISA, plate coated with tagged SIRPA at 1 ug/mL
T5 construct: see m48; also called human SIRPA v2; human SIRPA-Fc (v2)
T5 sequence (P78324 31-373 limits assumed): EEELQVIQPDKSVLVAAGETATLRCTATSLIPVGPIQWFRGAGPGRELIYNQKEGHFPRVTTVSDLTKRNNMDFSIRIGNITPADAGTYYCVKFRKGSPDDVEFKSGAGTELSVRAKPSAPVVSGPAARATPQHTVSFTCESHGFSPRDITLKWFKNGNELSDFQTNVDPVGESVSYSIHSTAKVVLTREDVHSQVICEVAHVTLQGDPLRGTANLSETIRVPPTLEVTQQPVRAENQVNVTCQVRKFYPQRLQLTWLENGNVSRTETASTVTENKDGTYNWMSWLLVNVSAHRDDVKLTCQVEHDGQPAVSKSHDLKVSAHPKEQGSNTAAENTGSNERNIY
Experimental: as §3

[8] = biological target: T6, CynoSIRPA (NP_001271679.1) (cynomolgus, UniProt A0A2K5VYQ9 31-507); assay: ELISA, plate coated with SIRP protein
T6 sequence: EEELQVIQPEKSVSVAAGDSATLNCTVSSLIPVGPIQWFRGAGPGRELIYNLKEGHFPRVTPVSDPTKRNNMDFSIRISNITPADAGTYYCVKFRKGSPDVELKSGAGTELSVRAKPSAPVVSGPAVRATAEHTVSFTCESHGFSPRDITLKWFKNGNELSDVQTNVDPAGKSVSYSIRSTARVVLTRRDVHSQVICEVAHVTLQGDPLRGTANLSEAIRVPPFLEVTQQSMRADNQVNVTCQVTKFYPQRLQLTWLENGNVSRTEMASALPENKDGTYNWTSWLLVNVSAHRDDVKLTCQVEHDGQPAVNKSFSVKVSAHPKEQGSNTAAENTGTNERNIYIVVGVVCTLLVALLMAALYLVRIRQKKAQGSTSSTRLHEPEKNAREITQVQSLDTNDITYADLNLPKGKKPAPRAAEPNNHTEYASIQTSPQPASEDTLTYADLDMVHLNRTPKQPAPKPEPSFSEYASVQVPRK
Experimental: as §3

[9] = biological target: T2, human SIRPA v1 on BWZ cells …; assay: flow cytometry titration on BWZ-huSIRPA cells, 4 C
Experimental: After addition of fluorescently labeled secondary antibody and brief washing steps, MFI values as a function of titrated antibody concentration was recorded via FACS analysis. […] Receptor bound antibodies were detected by staining cells with anti-human IgG PE secondary antibody. Curves were fit using nonlinear regression analysis with Graphpad Prism 6 software.

| Binder | Kd [1] | koff [1] | kon [1] | EC50 [2] | IC50 [3] | Kd [4] | koff [4] | kon [4] | EC50 [5] | binding result [6] | EC50 [7] | EC50 [8] | EC50 [9] |
| --- | --- | --- | --- | --- | --- | --- | --- | --- | --- | --- | --- | --- | --- |
| B1 | 20 nM | 0.0022 s⁻¹ | 110000 M⁻¹ s⁻¹ | 0.968 nM | 2.19 nM |  |  |  |  |  |  |  |  |
| B2 | 11 nM | 0.00094 s⁻¹ | 86000 M⁻¹ s⁻¹ | 1.61 nM | 4.61 nM |  |  |  |  |  |  |  |  |
| B3 |  |  |  | 2.1 nM | 11.5 nM | 18 nM | 0.001 s⁻¹ | 50800 M⁻¹ s⁻¹ | 1.09 nM | no binding | 0.695 nM | 0.658 nM | 0.72 nM |
| B4 |  |  |  |  |  |  |  |  |  |  |  | 7.44 nM |  |
